Test results as given in publication PMC8287685, “Archaeal Orc1 protein interacts with T-rich single-stranded DNA”.

Assays:
[1] = target: T1, ApOrc1 (Orc1-1) (Aeropyrum pernix, UniProt Q9YEV6 1-395); assay: MST; SPR: HBS-EP + 10 mM MgCl2, 2 mM ATP; BLI (room temperature) and MST: EDBS (25 mM Tris-HCl pH 8, 4% sucrose, 4 mM DTT, 80 ug/mL BSA, 10 mM Mg(OAc)2, 2 mM [truncated]); EMSA: 40 mM HEPES-KOH pH 8, 25 mM [truncated], 5% PAGE in TBE; conditions: protein: recombinant; label: 5' Cy3
T1 sequence: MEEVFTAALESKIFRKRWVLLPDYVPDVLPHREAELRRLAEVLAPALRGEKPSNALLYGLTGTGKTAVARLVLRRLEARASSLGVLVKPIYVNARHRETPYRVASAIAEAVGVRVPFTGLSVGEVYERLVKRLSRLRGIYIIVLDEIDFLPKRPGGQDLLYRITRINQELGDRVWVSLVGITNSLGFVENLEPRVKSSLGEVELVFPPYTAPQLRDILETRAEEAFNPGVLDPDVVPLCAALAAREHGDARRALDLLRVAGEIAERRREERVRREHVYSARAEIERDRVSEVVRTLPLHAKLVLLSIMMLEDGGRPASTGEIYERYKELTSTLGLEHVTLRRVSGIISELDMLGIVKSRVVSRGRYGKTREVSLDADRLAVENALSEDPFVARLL

[2] = target: T1, ApOrc1 (Orc1-1); assay: SPR; SPR: HBS-EP + 10 mM MgCl2, 2 mM ATP; BLI (room temperature) and MST: EDBS (25 mM Tris-HCl pH 8, 4% sucrose, 4 mM DTT, 80 ug/mL BSA, 10 mM Mg(OAc)2, 2 mM [truncated]); EMSA: 40 mM HEPES-KOH pH 8, 25 mM [truncated], 5% PAGE in TBE; conditions: protein: recombinant; label: Biotin-14-dCTP by TdT
[3] = target: T2, SSB (Escherichia coli, UniProt P0AGE0 1-178); assay: SPR; no significant difference from R bottom; SPR: HBS-EP + 10 mM MgCl2, 2 mM ATP; BLI (room temperature) and MST: EDBS (25 mM Tris-HCl pH 8, 4% sucrose, 4 mM DTT, 80 ug/mL BSA, 10 mM Mg(OAc)2, 2 mM [truncated]); EMSA: 40 mM HEPES-KOH pH 8, 25 mM [truncated], 5% PAGE in TBE; conditions: chain copies: 4; label: 5' biotin (BLI, SPR); fluorescent (MST)
[4] = target: T1, ApOrc1 (Orc1-1); assay: SPR; ATP, Mg2+; SPR: HBS-EP + 10 mM MgCl2, 2 mM ATP; BLI (room temperature) and MST: EDBS (25 mM Tris-HCl pH 8, 4% sucrose, 4 mM DTT, 80 ug/mL BSA, 10 mM Mg(OAc)2, 2 mM [truncated]); EMSA: 40 mM HEPES-KOH pH 8, 25 mM [truncated], 5% PAGE in TBE; conditions: protein: recombinant; label: 5' biotin (BLI, SPR); fluorescent (MST)
[5] = target: T1, ApOrc1 (Orc1-1); assay: BLI; higher than L top; SPR: HBS-EP + 10 mM MgCl2, 2 mM ATP; BLI (room temperature) and MST: EDBS (25 mM Tris-HCl pH 8, 4% sucrose, 4 mM DTT, 80 ug/mL BSA, 10 mM Mg(OAc)2, 2 mM [truncated]); EMSA: 40 mM HEPES-KOH pH 8, 25 mM [truncated], 5% PAGE in TBE; conditions: protein: recombinant; label: 5' biotin
[6] = target: T1, ApOrc1 (Orc1-1); assay: BLI; among the highest; SPR: HBS-EP + 10 mM MgCl2, 2 mM ATP; BLI (room temperature) and MST: EDBS (25 mM Tris-HCl pH 8, 4% sucrose, 4 mM DTT, 80 ug/mL BSA, 10 mM Mg(OAc)2, 2 mM [truncated]); EMSA: 40 mM HEPES-KOH pH 8, 25 mM [truncated], 5% PAGE in TBE; conditions: protein: recombinant; label: 5' biotin
[7] = target: T2, SSB; assay: SPR; no significant difference from R top; SPR: HBS-EP + 10 mM MgCl2, 2 mM ATP; BLI (room temperature) and MST: EDBS (25 mM Tris-HCl pH 8, 4% sucrose, 4 mM DTT, 80 ug/mL BSA, 10 mM Mg(OAc)2, 2 mM [truncated]); EMSA: 40 mM HEPES-KOH pH 8, 25 mM [truncated], 5% PAGE in TBE; conditions: chain copies: 4; label: 5' biotin (BLI, SPR); fluorescent (MST)
[8] = target: T1, ApOrc1 (Orc1-1); assay: SPR; ATP, Mg2+; SPR: HBS-EP + 10 mM MgCl2, 2 mM ATP; BLI (room temperature) and MST: EDBS (25 mM Tris-HCl pH 8, 4% sucrose, 4 mM DTT, 80 ug/mL BSA, 10 mM Mg(OAc)2, 2 mM [truncated]); EMSA: 40 mM HEPES-KOH pH 8, 25 mM [truncated], 5% PAGE in TBE; conditions: protein: recombinant; label: 5' biotin (BLI, SPR); fluorescent (MST); remark: listed apart in the source
[9] = target: T1, ApOrc1 (Orc1-1); assay: SPR; highest response; SPR: HBS-EP + 10 mM MgCl2, 2 mM ATP; BLI (room temperature) and MST: EDBS (25 mM Tris-HCl pH 8, 4% sucrose, 4 mM DTT, 80 ug/mL BSA, 10 mM Mg(OAc)2, 2 mM [truncated]); EMSA: 40 mM HEPES-KOH pH 8, 25 mM [truncated], 5% PAGE in TBE; conditions: protein: recombinant; label: 5' biotin

T2 sequence (P0AGE0 whole entry, the tested form may be a part): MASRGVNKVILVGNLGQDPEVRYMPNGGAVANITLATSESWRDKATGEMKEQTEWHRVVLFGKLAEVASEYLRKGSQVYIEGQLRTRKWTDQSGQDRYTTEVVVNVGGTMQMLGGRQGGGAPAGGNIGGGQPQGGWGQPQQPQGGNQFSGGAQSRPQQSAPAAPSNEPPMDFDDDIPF

B1: polyT(70) (ssDNA)
DNA: TTTTTTTTTTTTTTTTTTTTTTTTTTTTTTTTTTTTTTTTTTTTTTTTTTTTTTTTTTTTTTTTTTTTTT
- binding result [1]: binds

B2: polyA(60) (ssDNA)
DNA: AAAAAAAAAAAAAAAAAAAAAAAAAAAAAAAAAAAAAAAAAAAAAAAAAAAAAAAAAAAA
- binding result [2]: no binding

B3: polyT(60) (ssDNA)
DNA: TTTTTTTTTTTTTTTTTTTTTTTTTTTTTTTTTTTTTTTTTTTTTTTTTTTTTTTTTTTT
- binding result [2]: binds

B4: R top (ssDNA)
DNA: CAAATCAAGCTAGAAACAAACAAAGACACACTATAATCCAGAACTGCACAGCCTGA
- binding result [3]: binds
- binding signal [4]: ~0.33 fold SPR response vs R bottom (stated as R bottom 3 times higher)

B5: L bottom (ssDNA)
DNA: TTTAAAACTGGGTTTTTGTATCATTATATTGGCATTCTTCAAGAGCACTATTCGGGAGGAGTATACGCTTC
- binding result [5]: binds

B6: polyA(70) (ssDNA)
DNA: AAAAAAAAAAAAAAAAAAAAAAAAAAAAAAAAAAAAAAAAAAAAAAAAAAAAAAAAAAAAAAAAAAAAAA
- binding result [1]: no binding

Binder: TTTAAAACTGGGTTTTTGTATCATTATATTGGCAT (ssDNA) [L2 bottom]
- binding result [6]: binds

B7: R bottom (ssDNA)
DNA: TCAGGCTGTGCAGTTCTGGATTATAGTGTGTCTTTGTTTGTTTCTAGCTTGATTTG
- binding result [7]: binds
- binding signal [8]: ~3 fold SPR response vs R top

Binder: TGTGTCTTTGTTTGTTTCTAGCTTGATTTG (ssDNA) [R1 bottom]
- binding result [9]: binds
